Test results taken from patent US20150368340A1 (US Dept. of Health and Human Services, published 2015).

Assays:
[1] = target: cell surface-associated glypican-3 (GPC3) (human) (UniProt P51654); assay: co-IP of GPC3 and Wnt3a from HepG2 xenograft tumor tissue after three weeks of 20 mg/kg HS20 (mutated form); blocked partner Wnt3a (FIG. 17B)
[2] = target: T1, cell surface-associated glypican-3 (GPC3) (human, UniProt P51654 25-554, two heparan sulfate (HS) chains on the C-terminal portion; GPI anchor); assay: cell-based or functional assay
[3] = target: T1, cell surface-associated glypican-3 …; assay: flow cytometry on G1 cells, HN3-hFc titrated, one-site binding fit (FIG. 4B)
[4] = target: T2, recombinant human GPC3 with His tag (GPC3-his) (human, UniProt P51654 25-559, heparan sulfate chains); assay: ELISA, purified GPC3 coated at 1 µg/ml, HN3-hFc titrated, one-site binding fit (FIG. 4A)
T2 construct: range 25-559; also called GPC3 alone; purified GPC3; not shown: six-histidine tag

[5] = target: T1, cell surface-associated glypican-3 …; assay: cell-based or functional assay; remark: listed apart in the source
GPC3 N-terminal fragment = target: T3, GPC3 N-terminal fragment (human, UniProt P51654 25-358); assay: phage ELISA on recombinant GPC3 fragments (FIG. 5B)
T3 construct: domain: N-terminal fragment; also called N-terminus alone

GPC3 C-terminal fragment = target: T4, GPC3 C-terminal fragment (human, UniProt P51654 359-559, limits assumed); assay: as above
T4 construct: domain: C-terminal fragment; also called C-terminus alone
T4 sequence (looked up): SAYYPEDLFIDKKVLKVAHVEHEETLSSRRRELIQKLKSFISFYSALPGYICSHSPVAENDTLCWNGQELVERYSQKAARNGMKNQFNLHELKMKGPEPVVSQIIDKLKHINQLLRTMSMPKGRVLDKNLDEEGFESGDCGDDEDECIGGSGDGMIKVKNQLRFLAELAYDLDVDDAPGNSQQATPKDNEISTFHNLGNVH

[6] = target: cell surface-associated glypican-3 (GPC3) (human) (UniProt P51654); assay: cell-based or functional assay
[7] = target: T2, recombinant human GPC3 with His tag …; assay: ELISA on recombinant GPC3 protein (FIG. 13B)
[8] = target: T2, recombinant human GPC3 with His tag …; assay: ELISA on recombinant GPC3 protein against HS molecules alone (FIG. 13B)

## HS20 Mt (HS20 IgG with the N-glycosylation site of the VL removed) (antibody)
[1]
  percent of the GPC3-Wnt3a interaction blocked: 70%

B1: HN3-human Fc fusion protein (HN3-hFc) (Fc fusion, not shown: a dimerising Fc or GST)
chain: QVQLVQSGGGLVQPGGSLRLSCAASYFDFDSYEMSWVRQAPGKGLEWIGSIYHSGSTYYNPSLKSRVTISRDNSKNTLYLQMNTLRAEDTATYYCARVNMDRFDYWGQGTLVTVSSS
notes: also called HN3 human mAb
[2]
  cell growth inhibition (WST-8), Hep3B cells, IC50: ~50000 ng/mL
  cell growth inhibition (WST-8), Huh-7 cells, IC50: ~50000 ng/mL
[3]
  Kd: 0.15 nM
[4]
  Kd: 0.64 nM

B2: HN3(VH)-PE38 immunotoxin (other)
chain: QVQLVQSGGGLVQPGGSLRLSCAASYFDFDSYEMSWVRQAPGKGLEWIGSIYHSGSTYYNPSLKSRVTISRDNSKNTLYLQMNTLRAEDTATYYCARVNMDRFDYWGQGTLVTVSSSAAKASGGPEGGSLAALTAHQACHLPLETFTRHRQPRGWEQLEQCGYPVQRLVALYLAARLSWNQVDQVIRNALASPGSGGDLGEAIREQPEQARLALTLAAAESERFVRQGTGNDEAGAANGPADSGDALLERNYPTGAEFLGDGGDVSFSTRGTQNWTVERLLQAHRQLEERGYVFVGYHGTFLEAAQSIVFGGVRARSQDLDAIWRGFYIAGDPALAYGYAQDQEPDARGRIRNGALLRVYVPRSSLPGFYRTSLTLAAPEAAGEVERLIGHPLPLRLDAITGPEEEGGRLETILGWPLAERTVVIPSAIPTDPRNVGGDLDPSSIPDKEQAISALPDYASQPGKPPREDLK
[2]
  cytotoxicity IC50 (WST-8), G1 cells, molar: 0.0002 nM
  cytotoxicity IC50 (WST-8), Hep3B cells, molar: 0.0004 nM
  cytotoxicity IC50 (WST-8), HepG2 cells, molar: 10 nM
  cytotoxicity IC50 (WST-8), Huh-1 cells, molar: 0.0012 nM
  cytotoxicity IC50 (WST-8), Huh-7 cells, molar: 1.3 nM
[5]
  cytotoxicity IC50 (WST-8), G1 cells: 0.01 ng/mL
  cytotoxicity IC50 (WST-8), Hep3B cells: 0.02 ng/mL
  cytotoxicity IC50 (WST-8), HepG2 cells: 549 ng/mL
  cytotoxicity IC50 (WST-8), Huh-1 cells: 0.06 ng/mL
  cytotoxicity IC50 (WST-8), Huh-4 cells: > 1000 ng/mL
  cytotoxicity IC50 (WST-8), Huh-7 cells: 64 ng/mL

B3: HN3 single-domain VH displayed on phage (clone HN3) (VHH)
VHH: QVQLVQSGGGLVQPGGSLRLSCAASYFDFDSYEMSWVRQAPGKGLEWIGSIYHSGSTYYNPSLKSRVTISRDNSKNTLYLQMNTLRAEDTATYYCARVNMDRFDYWGQGTLVTVSS
GPC3 N-terminal fragment
  binding result: no binding
GPC3 C-terminal fragment
  binding result: no binding

B4: HS20 human IgG (HS20 Wt mAb) (antibody, V domains shown)
VH: EVQLLESGGGLVQPGGSLRLSCAASGFTFSSYAMSWVRQAPGKGLEWVSTIQKQGLPTEYADSVKGRFTISRDNSKNTLYLQMNSLRAEDTAVYYCAKNRAKFDYWGQGTLVTVSS
VL: DIQMTQSPSSLSASVGDRVTITCRASQSISSYLNWYQQKPGKAPKLLIYNASMLQSGVPSRFSGSGSGTDFTLTISSLQPEDFATYYCQQNRGFPLTFGQGTKVEIK
modifications: N-glycosylation site at residue 50 of SEQ ID NO: 16 (CDR2)
notes: also called HS20 IgG; HS20 mAb
[6]
  decrease in wound closure efficiency (wound healing assay, Hep3B cells, 50 µg/ml HS20): > 30%
[7]
  Kd: 0.75 nM
[8]
  fold stronger binding than on HS alone: ≥ 1000 fold
